# Data: IntAct's records for PubMed 24698088
# B1: Serine protease HTRA2, mitochondrial (Homo sapiens), O43464 (parent)
# chain: MAAPRAGRGAGWSLRAWRALGGIRWGRRPRLTPDLRALLTSGTSDPRARVTYGTPSLWARLSVGVTEPRACLTSGTPGPRAQLTAVTPDTRTREASENSGTRSRAWLAVALGAGGAVLLLLWGGGRGPPAVLAAVPSPPPASPRSQYNFIADVVEKTAPAVVYIEILDRHPFLGREVPISNGSGFVVAADGLIVTNAHVVADRRRVRVRLLSGDTYEAVVTAVDPVADIATLRIQTKEPLPTLPLGRSADVRQGEFVVAMGSPFALQNTITSGIVSSAQRPARDLGLPQTNVEYIQTDAAIDFGNSGGPLVNLDGEVIGVNTMKVTAGISFAIPSDRLREFLHRGEKKNSSSGISGSQRRYIGVMMLTLSPSILAELQLREPSFPDVQHGVLIHKVILGSPAHRAGLRPGDVILAIGEQMVQNAEDVYEAVRTQSQLAVQIRRGRETLTLYVTPEVTE
# partner: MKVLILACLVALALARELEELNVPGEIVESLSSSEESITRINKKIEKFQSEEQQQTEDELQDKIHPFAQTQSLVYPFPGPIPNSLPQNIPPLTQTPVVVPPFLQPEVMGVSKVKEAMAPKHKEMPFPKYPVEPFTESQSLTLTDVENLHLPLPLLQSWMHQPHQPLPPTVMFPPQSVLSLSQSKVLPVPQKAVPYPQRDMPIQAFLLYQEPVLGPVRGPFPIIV
# Variants of: B1
# Conditions: with casb_bovin CSN2, P02666
row,Variant,effect of a mutation on the interaction
1,MAAPRAGRGAGWSLRAWRALGGIRWGRRPRLTPDLRALLTSGTSDPRARVTYGTPSLWARLSVGVTEPRACLTSGTPGPRAQLTAVTPDTRTREASENSGTRSRAWLAVALGAGGAVLLLLWGGGRGPPAVLAAVPSPPPASPRSQYNFIADVVEKTAPAVVYIEILDRHPFLGREVPISNGSGFVVAADGLIVTNAHVVADRRRVRVRLLSGDTYEAVVTAVDPVADIATLRIQTKEPLPTLPLGRSADVRQGEFVVAMGSPFALQNTITSGIVSSAQRPARDLGLPQTNVEYIQTDAAIDFGNSGGPLVNLDGEVIGVNTMKVTAGISFAIPSDRLREFLHRGEKKNSSSGISGSQRRYIAVMMLTLSPSILAELQLREPSFPDVQHGVLIHKVILGSPAHRAGLRPGDVILAIGEQMVQNAEDVYEAVRTQSQLAVQIRRGRETLTLYVTPEVTE [G363A],decreasing interaction
